The target of the test is microtubules (MT fraction from mouse brain) (mouse (endogenous in mouse brain)) (UniProt P68369). Nature of the test: co-sedimentation.

For “recombinant human tau lacking the MT-binding domain (tau ΔMTBD) (from UniProt P10636-6 1-383) (natural protein)”, the MT-bound fraction was 0.619 and the MT-unbound fraction came out at 0.381.

These data come from paper PMC6743362.
